The source of these data is publication PMC4587348 (Archives of biochemistry and biophysics, 2015).

The target in data set [1] is ScHIcDH (homoisocitrate dehydrogenase from Saccharomyces cerevisiae) (Saccharomyces cerevisiae, UniProt P40495, D271N). In words: initial rate, NADH formation at […] nm, dead-end inhibition. It is filed as biochemical.
A further data set deals with Tyr150. As to the kind of experiment: kinetics. The note with it: cited from earlier work.
The next data set deals with Lys206. As to the kind of experiment: kinetics. The note with it: Steady-state turnover at saturating reactants (V/Et); cited from earlier work.

ScHIcDH (homoisocitrate dehydrogenase from Saccharomyces cerevisiae), sequence (P40495 23-371 D271N): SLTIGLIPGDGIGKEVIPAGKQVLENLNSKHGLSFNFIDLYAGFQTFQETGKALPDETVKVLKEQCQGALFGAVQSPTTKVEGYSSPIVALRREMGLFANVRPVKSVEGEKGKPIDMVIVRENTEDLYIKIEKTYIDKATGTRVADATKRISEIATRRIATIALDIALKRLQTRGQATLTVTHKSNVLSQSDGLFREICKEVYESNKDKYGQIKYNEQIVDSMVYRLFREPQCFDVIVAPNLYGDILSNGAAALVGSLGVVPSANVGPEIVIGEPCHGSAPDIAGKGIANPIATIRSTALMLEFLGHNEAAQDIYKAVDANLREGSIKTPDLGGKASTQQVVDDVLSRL

Broadly, the Ki is the dissociation constant of the complex between target and ligand, obtained from inhibition or displacement. `CC(=O)c1ccc[n+]([C@@H]2O[C@H](COP(=O)([O-])OP(=O)(O)OC[C@H]3O[C@@H](n4cnc5c(N)ncnc54)[C@H](O)[C@@H]3OP(=O)(O)O)[C@@H](O)[C@H]2O)c1` [3-AcPyrADP] showed a Ki in data set [1] of 0.34 ± 0.05 mM.

Consider `O=C(O)CS[C@H](C(=O)O)[C@@H](O)C(=O)O` [Thiahomoisocitrate], for which the inhibitory constant (Ki) in data set [1] worked out at 20 ± 3 mM. As usually defined, the pKa is the negative logarithm of the acid dissociation constant. As to “Homoisocitrate dehydrogenase (ScHIcDH) (Saccharomyces cerevisiae)”, the pKa in the data set on Tyr150 (Steady-state turnover. V profile: enzyme saturated with NAD and MgHIc.) is given as 9.5. As for “Homoisocitrate dehydrogenase (ScHIcDH) K206M mutant (Saccharomyces cerevisiae; K206M)”, the pKa in the data set with Tyr150 (Steady-state turnover at saturating reactants (V/Et)) is 9.5. For “Homoisocitrate dehydrogenase (ScHIcDH) Y150F mutant (Saccharomyces cerevisiae; Y150F)”, the pKa in the data set on Lys206 is on record as 6.
